Reference: publication PMC9584609

What was measured:
[1] = target: ClC-2 tagged with mVenus and PAmCherry (human) (UniProt P51788); test: native gel or EMSA; high-resolution clear native electrophoresis (hrCNE); lysate of transfected HEK293T cells in 0.1 M sodium phosphate with 0.5% digitonin or 20 mM DDM; 4-14% acrylamide gradient gel run at 4 °C; mVenus fluorescence scanned; VGLUTs and sialin with and without PNGaseF
[2] = target: bClC-K tagged with mVenus and PAmCherry (Bos taurus); test: as above

Chain of ClC-2 tagged with mVenus and PAmCherry (P51788 2-898): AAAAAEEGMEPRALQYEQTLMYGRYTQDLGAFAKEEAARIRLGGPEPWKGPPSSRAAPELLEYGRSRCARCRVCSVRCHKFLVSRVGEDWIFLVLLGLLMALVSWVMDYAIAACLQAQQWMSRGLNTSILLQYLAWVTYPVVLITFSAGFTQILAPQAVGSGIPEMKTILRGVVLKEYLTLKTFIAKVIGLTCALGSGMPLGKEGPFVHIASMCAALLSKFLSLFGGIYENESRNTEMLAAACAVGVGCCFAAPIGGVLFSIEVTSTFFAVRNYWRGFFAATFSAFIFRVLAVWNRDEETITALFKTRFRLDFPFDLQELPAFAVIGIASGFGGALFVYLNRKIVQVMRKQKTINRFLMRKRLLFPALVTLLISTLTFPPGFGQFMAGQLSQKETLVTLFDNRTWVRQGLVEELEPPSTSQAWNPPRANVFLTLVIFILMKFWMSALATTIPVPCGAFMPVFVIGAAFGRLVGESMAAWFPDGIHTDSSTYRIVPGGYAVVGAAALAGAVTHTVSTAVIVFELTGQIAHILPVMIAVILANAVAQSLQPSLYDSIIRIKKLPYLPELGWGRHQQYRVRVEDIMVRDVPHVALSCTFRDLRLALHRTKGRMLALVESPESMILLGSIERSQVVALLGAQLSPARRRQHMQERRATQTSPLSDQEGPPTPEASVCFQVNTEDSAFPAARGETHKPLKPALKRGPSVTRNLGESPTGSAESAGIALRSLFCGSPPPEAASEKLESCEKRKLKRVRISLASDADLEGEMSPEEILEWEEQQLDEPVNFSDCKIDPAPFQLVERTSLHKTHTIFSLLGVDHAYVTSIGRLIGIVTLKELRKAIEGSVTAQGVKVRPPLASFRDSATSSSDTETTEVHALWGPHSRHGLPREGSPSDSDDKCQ

stoichiometry N [1] | stoichiometry N [2] | Substance
2 | – | ClC-2 tagged with mVenus and PAmCherry (from UniProt P51788 1-898) (natural protein)
– | 2 | bClC-K tagged with mVenus and PAmCherry (natural protein)
